Residue numbers refer to the chain shown, from its start.

The values below come from US20150232544A1.

In test [1] the target is eTau1b (UniProt P10636). The test can be described thus: relative binding affinity, method not named; eTau 1b.
For test [2], the target named is eTau2 (UniProt P10636). The test can be described thus: relative binding affinity, method not named; eTau 2.

Sequence of UniProt P10636 (P10636 other isoform, or with tags, fused parts or gaps): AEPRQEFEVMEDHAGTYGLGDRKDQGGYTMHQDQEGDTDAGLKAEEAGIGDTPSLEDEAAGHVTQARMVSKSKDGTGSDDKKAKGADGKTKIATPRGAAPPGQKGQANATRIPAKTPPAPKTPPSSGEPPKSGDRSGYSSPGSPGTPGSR

B1: humanized IPN002 variant VH1/Vk2 (antibody, V domains shown)
VH: EVHLVESGGALVKPGGSLRLSCAASGFSFSKYGMSWVRQAPGKGLEWVATISSSGSRTYYPDSVKGRFTISRDNAKNTLYLQMSSLKSEDTAMYYCSISWDGAMDYWGQGTSVTVSS
VL: DVVMTQSPLSLPVTLGQPASISCKSSQSIVHSNGNTYLEWYLQKPGQSPQLLVYKVSNRFSGVPDRFSGSGSGTDFTLKISRVEAEDVGTYYCFQGSLVPWAFGGGTKVEIK
Usually Kd stands for the equilibrium constant for the complex coming apart. The low end stands for higher affinity, the high end for lower affinity. For the molecule B1, the Kd in test [1] worked out at 0.558 nM; in test [2], 0.361 nM.

B2: humanized IPN002 variant VH4/Vk2 (antibody, V domains shown)
VH: B1 VH with H3Q, S84N, K87R, S88A, S97A, S112T
VL: B1 VL
As for B2, the Kd in test [1] stood at 0.483 nM; in test [2], 0.451 nM.

B3: humanized IPN002 variant VH4/Vk3 (antibody, V domains shown)
VH: B1 VH with H3Q, S84N, K87R, S88A, S97A, S112T
VL: B1 VL with T90V
Turning to B3, the Kd in test [1] was found to be 0.313 nM; in test [2] it was 0.473 nM.

B4: humanized IPN002 variant VH1/Vk3 (antibody, V domains shown)
VH: B1 VH
VL: B1 VL with T90V
For B4, the equilibrium dissociation constant (Kd) in test [1] worked out at 0.59 nM; in test [2], 0.444 nM.

B5: humanized IPN002 variant VH2/Vk2 (antibody, V domains shown)
VH: B1 VH with S84N, K87R, S88A, S112T
VL: B1 VL
Take B5: the equilibrium dissociation constant (Kd) in test [1] turned out to be 0.229 nM; in test [2] it was 0.283 nM.

B6: humanized IPN002 variant VH4/Vk1 (antibody, V domains shown)
VH: B1 VH with H3Q, S84N, K87R, S88A, S97A, S112T
VL: B1 VL with V3L
Take B6: the figures for the dissociation constant Kd in test [1] and in test [2] were 0.359 nM and 0.405 nM, respectively.

B7: humanized IPN002 variant VH1/Vk1 (antibody, V domains shown)
VH: B1 VH
VL: B1 VL with V3L
Turning to B7, the Kd in test [1] is 0.737 nM; in test [2], 0.465 nM.

B8: humanized IPN002 variant VH2/Vk4 (antibody, V domains shown)
VH: B1 VH with S84N, K87R, S88A, S112T
VL: B1 VL with V53I, T90V
Consider B8, for which the dissociation constant (Kd) in test [1] is 0.52 nM; in test [2] it was 0.354 nM.

B9: humanized IPN002 variant VH3/Vk4 (antibody, V domains shown)
VH: B1 VH with H3Q, S84N, K87R, S88A, S112T
VL: B1 VL with V53I, T90V
As for B9, the Kd in test [1] was found to be 0.382 nM; in test [2] it was 0.447 nM.

B10: humanized IPN002 variant VH1/Vk4 (antibody, V domains shown)
VH: B1 VH
VL: B1 VL with V53I, T90V
As to B10, the dissociation constant (Kd) in test [1] was determined as 0.597 nM; in test [2] it was 0.427 nM.

B11: humanized IPN002 variant VH2/Vk3 (antibody, V domains shown)
VH: B1 VH with S84N, K87R, S88A, S112T
VL: B1 VL with T90V
For B11, the dissociation constant (Kd) in test [1] worked out at 0.287 nM; in test [2] it was 0.261 nM.

B12: humanized IPN002 variant VH3/Vk2 (antibody, V domains shown)
VH: B1 VH with H3Q, S84N, K87R, S88A, S112T
VL: B1 VL
For B12, the Kd in test [1] was 0.614 nM; in test [2], 0.408 nM.

B13: humanized IPN002 variant VH4/Vk4 (antibody, V domains shown)
VH: B1 VH with H3Q, S84N, K87R, S88A, S97A, S112T
VL: B1 VL with V53I, T90V
B13: the dissociation constant Kd worked out at 0.535 nM in test [1] and 0.564 nM in test [2].

B14: humanized IPN002 variant VH2/Vk1 (antibody, V domains shown)
VH: B1 VH with S84N, K87R, S88A, S112T
VL: B1 VL with V3L
On to B14, for which the Kd was 0.215 nM in test [1] and 0.225 nM in test [2].

B15: humanized IPN002 variant VH3/Vk1 (antibody, V domains shown)
VH: B1 VH with H3Q, S84N, K87R, S88A, S112T
VL: B1 VL with V3L
In the case of B15, the values for the Kd in test [1] and in test [2] were 0.529 nM and 0.705 nM, respectively.

B16: humanized IPN002 variant VH3/Vk3 (antibody, V domains shown)
VH: B1 VH with H3Q, S84N, K87R, S88A, S112T
VL: B1 VL with T90V
Consider B16, for which the figures for the Kd in test [1] and in test [2] were 0.689 nM and 0.471 nM, respectively.
